Test results reported in patent US20060228300A1.

Tests used:
[1] = molecular target: CEA (UniProt P06731); test: SE-HPLC of 125I-TF2 mixed with a 20-fold molar excess of CEA
[2] = molecular target: fusion protein containing the A3B3 domain of CEA (UniProt P06731); test: competitive ELISA vs HRP-conjugated hMN-14 IgG (1 nM) on the A3B3 fusion protein
Sequence of fusion protein containing the A3B3 domain of CEA (P06731 499-676): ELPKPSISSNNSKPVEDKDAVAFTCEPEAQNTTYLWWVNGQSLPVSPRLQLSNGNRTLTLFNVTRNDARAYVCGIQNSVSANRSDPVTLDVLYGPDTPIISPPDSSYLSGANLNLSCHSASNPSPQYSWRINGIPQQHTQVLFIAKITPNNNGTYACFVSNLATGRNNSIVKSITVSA

Sequence of CEA (P06731 35-685 limits assumed): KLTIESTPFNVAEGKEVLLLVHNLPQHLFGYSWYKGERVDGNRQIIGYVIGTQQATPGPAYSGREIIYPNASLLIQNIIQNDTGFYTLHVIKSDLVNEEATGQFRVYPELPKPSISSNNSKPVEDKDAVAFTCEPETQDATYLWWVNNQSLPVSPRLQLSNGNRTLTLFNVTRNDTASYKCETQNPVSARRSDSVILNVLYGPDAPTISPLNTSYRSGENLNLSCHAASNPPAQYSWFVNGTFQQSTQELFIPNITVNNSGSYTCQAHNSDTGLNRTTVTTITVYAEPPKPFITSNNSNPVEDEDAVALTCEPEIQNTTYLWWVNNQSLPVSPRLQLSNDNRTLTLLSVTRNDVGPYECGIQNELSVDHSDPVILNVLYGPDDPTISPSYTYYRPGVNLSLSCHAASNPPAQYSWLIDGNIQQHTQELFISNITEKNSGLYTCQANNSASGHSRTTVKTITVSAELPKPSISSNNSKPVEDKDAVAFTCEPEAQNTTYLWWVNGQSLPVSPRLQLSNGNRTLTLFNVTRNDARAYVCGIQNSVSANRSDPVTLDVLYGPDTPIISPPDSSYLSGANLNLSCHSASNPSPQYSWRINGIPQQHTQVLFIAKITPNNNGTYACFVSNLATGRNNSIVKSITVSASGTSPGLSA

percent shifted to a high molecular weight species [1]: 95%
fold avidity against TF1 [2]: 2 fold
Substance: TF2 (bispecific antibody)
